From paper PMC5158307, “Substrate specificity characterization for eight putative nudix hydrolases. Evaluation of criteria for substrate identification within the Nudix family” (Proteins, 2016)

Columns and labels:
Test in all cases: purified protein
Conditions in all cases: pH 7.6, 37 °C, 1 mM MgCl2, 10 mM Tris-HCl
[1] = substrate: Cc1cn([C@@H]2O[C@H](COP(=O)(O)OP(=O)(O)OP(=O)(O)O)[C@@H](O)[C@H]2O)c(=O)nc1N
Source text: (§1) Pi-sensor (MDCC-PBP) fluorescence, PPase coupled on Q5LBB1_BACFN

[2] = substrate: Cc1cn([C@H]2C[C@H](O)[C@@H](COP(=O)(O)OP(=O)(O)OP(=O)(O)O)O2)c(=O)nc1N
Source text: as §1

[3] = substrate: Nc1nc(=O)n([C@H]2C[C@H](O)[C@@H](COP(=O)(O)OP(=O)(O)OP(=O)(O)O)O2)cc1CO
Source text: as §1

[4] = substrate: Nc1nc(=O)n([C@H]2C[C@H](O)[C@@H](COP(=O)(O)OP(=O)(O)OP(=O)(O)O)O2)cc1O
Source text: as §1

B1: Q5LBB1_BACFN (Bacteroides fragilis NCTC 9343) (protein)
chain: MKSIEVVAAVIRLGEKYLCVQRGQTKFSYTSFRYEFPGGKVEEGESLQEALQREIMEEMDYVIEVGEKLLTVHHTYPDFEITMHAFLCHPVGQRYVLKEHIAAQWLSTREMAILDWAEADKPIVRKISEQ
Km [1]: 2.5 ± 1.2 µM | kcat [1]: 16 ± 3 s⁻¹ | kcat/Km [1]: 6.7e+06 ± 2.4e+06 M⁻¹ s⁻¹ | Km [2]: 3.0 ± 0.8 µM | kcat [2]: 14 ± 1 s⁻¹ | kcat/Km [2]: 4.8e+06 ± 1e+06 M⁻¹ s⁻¹ | Km [3]: 10 ± 5 µM | kcat [3]: 45 ± 11 s⁻¹ | kcat/Km [3]: 4.4e+06 ± 1e+06 M⁻¹ s⁻¹ | Km [4]: 9.2 ± 2.8 µM | kcat [4]: 0.78 ± 0.11 s⁻¹ | kcat/Km [4]: 85000 ± 14000 M⁻¹ s⁻¹
